Patent US20240166767A1 (SCIRHOM, published 2024)
Changes are numbered by the printed parent chain.

B1: humanized antibody 42-B-04 (antibody, V domains shown)
VH: QVTLRESGPALVKPTQTLTLTCTFSGFSLSTFGRGVGWIRQPPGKALEWLAHIWWDDEKYYNSALKSRLTISKDTSKNQVVLTITNMDPVDTATYYCARIQNYGSNYWYFDVWGQGTLVTVSS
VL: AIQLTQSPSSLSASVGDRVTITCRASSRISYMFWYQQKPGKAPKVLIYDTSNLASGVPSRFSGSGSGTDYTLTISSLQPEDFATYYCQQWNAYPLTFGQGTKLEIK
notes: Tested as whole humanized antibody produced in CHO cells and detected with anti-human IgG; the general methods speak of human IgG1/Kappa; also called clone 42-B-04
B2: humanized antibody 42-B-02 (antibody, V domains shown)
VH: B1 VH
VL: B1 VL with A92S
notes: Tested as whole humanized antibody from transient expression of heavy chain/kappa light chain pairs in CHO cells, detected with anti-human IgG; the general methods speak of human IgG1/Kappa; also called clone 42-B-02
B3: humanized antibody 23-B-04 (antibody, V domains shown)
VH: B1 VH with R34M, Q101S, D111N
VL: B1 VL with R28S, I29V, F33Y
notes: Tested as whole humanized antibody produced in CHO cells and detected with anti-human IgG; the general methods speak of human IgG1/Kappa; also called clone 23-B-04
B4: humanized antibody 16-B-07 (antibody, V domains shown)
VH: QVTLRESGPALVKPTQTLTLTCTFSGFSLSTFALGVGWIRQPPGKALEWLAHIWWDEDKYYNPALKSRLTISKDTSKNQVVLTITNMDPVDTATYYCARITTYYYGMDYWGQGTLVTVSS
VL: EIVMTQSPDFQSVTPKEKVTITCRASQSIGNHLHWYQQKPDASPKLLIKYASQSISGVPSRFSGSGSGTDFTLTINSLEAEDAATYFCQQSYQWPLTFGQGTKLEIK
notes: Tested as whole humanized antibody produced in CHO cells and detected with anti-human IgG; the general methods speak of human IgG1/Kappa; also called clone 16-B-07
B5: humanized antibody 16-B-03 (antibody, V domains shown)
VH: B4 VH with E57D
VL: B4 VL
notes: Tested as whole humanized antibody produced in CHO cells and detected with anti-human IgG; the general methods speak of human IgG1/Kappa; also called clone 16-B-03

Key:
[1] = target: T1, endogenous human iRhom2 (human, UniProt Q6PJF5 1-856); assay: cell-based or functional assay
T1 sequence: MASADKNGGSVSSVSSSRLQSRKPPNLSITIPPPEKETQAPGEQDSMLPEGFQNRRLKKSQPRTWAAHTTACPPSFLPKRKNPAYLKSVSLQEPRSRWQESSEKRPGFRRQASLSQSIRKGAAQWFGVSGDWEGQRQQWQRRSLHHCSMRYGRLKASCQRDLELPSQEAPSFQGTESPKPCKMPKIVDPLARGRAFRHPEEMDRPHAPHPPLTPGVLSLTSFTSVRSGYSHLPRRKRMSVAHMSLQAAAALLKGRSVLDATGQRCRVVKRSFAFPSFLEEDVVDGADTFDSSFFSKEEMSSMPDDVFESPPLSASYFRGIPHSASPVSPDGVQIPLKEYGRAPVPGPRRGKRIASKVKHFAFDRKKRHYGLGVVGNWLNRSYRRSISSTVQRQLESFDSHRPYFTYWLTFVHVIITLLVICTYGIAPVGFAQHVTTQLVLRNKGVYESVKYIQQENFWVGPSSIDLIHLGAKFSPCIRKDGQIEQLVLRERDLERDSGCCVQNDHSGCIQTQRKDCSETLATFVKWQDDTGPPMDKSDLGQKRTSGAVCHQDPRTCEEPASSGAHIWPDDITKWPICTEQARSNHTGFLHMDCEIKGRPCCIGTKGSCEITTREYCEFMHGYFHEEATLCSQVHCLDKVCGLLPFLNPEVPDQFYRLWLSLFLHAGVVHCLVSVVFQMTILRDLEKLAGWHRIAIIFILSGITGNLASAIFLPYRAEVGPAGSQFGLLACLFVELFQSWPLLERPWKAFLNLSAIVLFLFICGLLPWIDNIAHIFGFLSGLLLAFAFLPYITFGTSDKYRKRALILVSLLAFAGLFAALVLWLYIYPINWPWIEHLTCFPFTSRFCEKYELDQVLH

[2] = target: T2, dog iRhom1 full length wild type, T7-tagged (dog, UniProt A0A8I3MHT7 11-866); assay: FACS on MEF-DKO-Dog-iR1-FL-WT-T7 cells
T2 construct: whole, on cells; also called Dog-iR1-FL-WT-T7; expressed by MEF-DKO-Dog-iR1-FL-WT-T7 cells
T2 sequence: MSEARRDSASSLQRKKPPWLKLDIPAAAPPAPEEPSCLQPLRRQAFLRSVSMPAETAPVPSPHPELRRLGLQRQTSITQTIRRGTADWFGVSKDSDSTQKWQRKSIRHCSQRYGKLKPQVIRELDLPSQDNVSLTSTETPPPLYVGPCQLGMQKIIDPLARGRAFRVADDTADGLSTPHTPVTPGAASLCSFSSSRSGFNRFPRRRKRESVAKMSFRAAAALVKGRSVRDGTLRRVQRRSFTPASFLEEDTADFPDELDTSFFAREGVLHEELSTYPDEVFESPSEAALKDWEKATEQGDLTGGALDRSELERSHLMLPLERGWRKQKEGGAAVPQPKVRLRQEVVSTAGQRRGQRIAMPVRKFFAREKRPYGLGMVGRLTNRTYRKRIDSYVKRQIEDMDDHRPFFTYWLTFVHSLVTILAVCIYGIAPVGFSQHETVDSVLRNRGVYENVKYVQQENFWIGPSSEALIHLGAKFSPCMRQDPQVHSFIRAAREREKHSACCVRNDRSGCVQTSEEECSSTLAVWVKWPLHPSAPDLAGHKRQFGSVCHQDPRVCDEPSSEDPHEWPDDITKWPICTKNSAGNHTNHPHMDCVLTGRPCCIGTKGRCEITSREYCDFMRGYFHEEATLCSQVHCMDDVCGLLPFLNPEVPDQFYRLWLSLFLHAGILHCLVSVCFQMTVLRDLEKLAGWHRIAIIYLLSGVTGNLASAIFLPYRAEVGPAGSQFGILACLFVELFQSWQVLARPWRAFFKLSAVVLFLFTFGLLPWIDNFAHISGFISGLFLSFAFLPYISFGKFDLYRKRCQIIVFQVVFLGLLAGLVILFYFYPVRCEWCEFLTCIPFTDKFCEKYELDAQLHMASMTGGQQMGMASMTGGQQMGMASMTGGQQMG
Protocol: In brief, immortalized MEF-DKO-EV control cells, MEF-DKO-rhesus-iR2-FL-WT-T7 cells, MEF-DKO-cyno-iR2-FL-WT-T7 cells, MEF-DKO-dog-iR2-FL-WT-T7 cells and MEF-DKO-rabbit-iR2-FL-WT-T7 cells, as well as their respective iRhom1 counterparts, were harvested with 10 mM EDTA in PBS, washed and resuspended in FACS buffer (PBS, 3% FBS, 0.05% sodium azide), and seeded in Nunc U-bottom 96-well plates (Thermo Fisher Scientific, USA) at approximately 3×10⁵ cells per well. To pellet cells and remove supernatants, the plates were centrifuged at 1,500 rpm and 4° C. for 3 minutes. For primary staining, cells were resuspended in 100 μl per well of either FACS buffer alone (controls), mouse monoclonal anti-T7 IgG (Merck Millipore, USA) at 3 μg/ml FACS buffer or the antibodies of the invention also at 3 μg/ml FACS buffer and incubated on ice for 1 hour. Afterwards, plates were centrifuged at 1,500 rpm and 4° C. for 3 minutes and washed twice with 200 μl per well of FACS buffer. For secondary staining of previous anti T7 staining, cells were spun down and resuspended in 100 μl per well of PE-conjugated goat anti-mouse IgG F(ab′)2 detection fragment (Dianova, Germany) diluted 1:100 in FACS buffer. For secondary staining of previous staining with humanized antibodies of invention, cells were spun down and resuspended in 100 μl per well of PE-conjugated goat anti-human IgG F(ab′)2 detection fragment (Dianova, Germany) diluted 1:100 in FACS buffer. Protected from light, the cell suspensions were incubated on ice for 1 hour. Plates were then centrifuged at 1,500 rpm and 4° C. for 3 minutes and washed three times with 200 μl per well of FACS buffer. Finally, cells were resuspended in 150 μl per well of FACS buffer and analyzed using a BD Accuri™ C6 Plus flow cytometer (Becton Dickinson, Germany).

Binder | percent inhibition of LPS-induced release of TNFα from PBMCs from healthy donors (ELISA, antibody 3 µg/ml) [1] | percent inhibition of LPS-induced release of TNFα from THP-1 cells (ELISA, antibody 3 µg/ml) [1] | percent inhibition of PMA-induced release of HB-EGF from PBMCs from healthy donors (ELISA, antibody 3 µg/ml) [1] | percent inhibition of PMA-induced release of HB-EGF from THP-1 cells (ELISA, antibody 3 µg/ml) [1] | percent inhibition of PMA-induced release of HB-EGF from U-937 cells (ELISA, antibody 3 µg/ml) [1] | percent inhibition of PMA-induced release of IL-6R from PBMCs from healthy donors (ELISA, antibody 3 µg/ml) [1] | percent inhibition of PMA-induced release of IL-6R from THP-1 cells (ELISA, antibody 3 µg/ml) [1] | percent inhibition of PMA-induced release of IL-6R from U-937 cells (ELISA, antibody 3.33 µg/ml) [1] | percent inhibition of PMA-induced release of TGFα from PC3 cells (ELISA, antibody 10 µg/ml) [1] | percent inhibition of PMA-induced release of TNFα from U-937 cells (ELISA, antibody 3.33 µg/ml) [1] | binding result [2]
B1 | 68.5% | 76.1% | 66.7% | 86.2% | 99.4% | 78.4% | 71.6% | 82.4% | 19.5% | 87.9% | no binding (tested: 3 µg/ml)
B2 | 64.3% | 75.2% | 59.2% | 81.2% | 98.8% | 73.4% | 68.5% | 78.3% | 6.4% | 85% | no binding (tested: 3 µg/ml)
B3 | 59.4% | 77.6% | 49.6% | 84.4% | 99.5% | 64.6% | 70.1% | 77.8% | 21.3% | 77.2% | no binding (tested: 3 µg/ml)
B4 | 72.8% | 77.2% | 66.5% | 80.5% | 99.2% | 75.4% | 75.6% | 77.5% | 3.3% | 90.3% | no binding (tested: 3 µg/ml)
B5 | 74.2% | 75.1% | 69.7% | 80.2% | 99.2% | 75% | 75.6% | 79.6% | 15.9% | 89.8% | no binding (tested: 3 µg/ml)
